Assay results taken from publication PMC5095173, “Disulfide-activated protein kinase G Iα regulates cardiac diastolic relaxation and fine-tunes the Frank–Starling response” (Nature Communications, 2016).

B1: Myosin light chain kinase 3: PKGIα substrate, phospho site S155 (protein, UniProt E9PT87 1-786, looked up)
Myosin light chain kinase 3: MSGVSEEDPEGLGPQGLPALGGACLVTVDKKLNVLTEKVDRLLHFQEDVTEKLQCVCQGMDHLEQGLHRLEASQELGLAGPGSTSPAAAQAAWPEVLELVRAVRQEGAQHGARLEALFKMVVAVDRAITLVGSTIQNSKVDDFILQGTVPWRKGSLADGPEENKEQAEVAGVKPKHVLNTGSVQAATSRALWEESQKQDTPVGTVEGLPLIIDTSLKGADLTQAGASLRQGVEALDPGQEPPPTEAESRLPALASEDTGTTLELSVAIDRISEVLTSLRMSQSAGEGTSSSKPDCSEPGPQPLGPLTTDSDIHSDEGLPRISVRMREMTTPEELFETQGGSPIGSAEAPGPGTVLEDQIPKGARPFPPLPKRSCNNGGASAEEATGPGAEPIRGPSLVTRDWRDEPVGTTDLQQGRDPGAVSPEPGKDHAAQGPGRTEAGRRVSSAAEAAIVVLDDSAAPPAPFEHRVVSIKDTLISTSYTVSQHEVLGGGRFGQVHRCTERSTGLALAAKIIKVKNIKDREDVKNEINIMNQLSHVNLIQLYDAFESKNSFTLIMEYVDGGELFDRITDEKYHLTELDVVLFTRQICEGVHYLHQHYILHLDLKPENILCVSQTGHQIKIIDFGLARRYKPREKLKVNFGTPEFLAPEVVNYEFVSFPTDMWSVGVITYMLLSGLSPFLGETDAETMNFIVNCSWDFDADTFKGLSEEAKDFVSRLLVKEKSCRMSATQCLKHEWLNHLIAKASGSNVRLRSQLLLQKYMAQRKWKKHFHVVTAVNRLRKFPTCP
modifications: phosphorylated at S155
B2: Polymerase I and transcript release factor: PKGIα substrate, phospho sites T304 (r27) and S302 (r28) (protein, UniProt P85125 1-392, looked up)
Caveolae-associated protein 1: MEDVTLHIVERPYSGYPDASSEGPEPTPGEARATEEPSGTGSDELIKSDQVNGVLVLSLLDKIIGAVDQIQLTQAQLEERQAEMEGAVQSIQGELSKLGKAHATTSNTVSKLLEKVRKVSVNVKTVRGSLERQAGQIKKLEVNEAELLRRRNFKVMIYQDEVKLPAKLSVSKSLKESEALPEKEGDELGEGERPEEDAAAIELSSDEAVEVEEVIEESRAERIKRSGLRRVDDFKKAFSKEKMEKTKVRTRENLEKTRLKTKENLEKTRHTLEKRMNKLGTRLVPVERREKLKTSRDKLRKSFTPDHVVYARSKTAVYKVPPFTFHVKKIREGEVEVLKATEMVEVGPDDDEVGAERGAETDLLRGSSPDVHTLLEITEESDAVLVDKSDSD
modifications: phosphorylated at T304/S302
B3: Protein NDRG2: PKGIα substrate, phospho site S332 (protein, UniProt Q9QYG0 2-371, looked up)
Protein NDRG2: AELQEVQITEEKPLLPGQTPETAKEAELAARILLDQGQTHSVETPYGSVTFTVYGTPKPKRPAIFTYHDVGLNYKSCFQPLFRFGDMQEIIQNFVRVHVDAPGMEEGAPVFPLGYQYPSLDQLADMIPCILQYLNFSTIIGVGVGAGAYILSRYALNHPDTVEGLVLINIDPNAKGWMDWAAHKLTGLTSSIPDMILGHLFSQEELSGNSELIQKYRGIIQHAPNLENIELYWNSYNNRRDLNFERGGETTLKCPVMLVVGDQAPHEDAVVECNSKLDPTQTSFLKMADSGGQPQLTQPGKLTEAFKYFLQGMGYMASSCMTRLSRSRTASLTSAASIDGSRSRSRTLSQSSESGTLPSGPPGHTMEVSC
modifications: phosphorylated S332
B4: Trifunctional enzyme subunit beta, mitochondrial: PKGIα substrate, phospho site S198 (protein, UniProt Q60587 35-475, looked up)
Trifunctional enzyme subunit …: SAPAVQTKSKKTLAKPNLKNIVVVEGVRIPFLLSGTSYKDLMPHDLARAALSGLLYRTNIPKDVVDYIIFGTVIQEVKTSNVAREAALGAGFSDKTPAHTVTMACISSNQAMTTAVGLIASGQCDVVVAGGVELMSDVPIRHSRNMRKMMLDLNKAKTLAQRLSLLTKFRLNFLSPELPAVAEFSTNETMGHSADRLAAAFAVSRMEQDKYALRSHSLAKKAQDEGHLSDIVPFKVPGKDTVSKDNGIRPSSLEQMAKLKPAFIKPYGTVTAANSSFLTDGASAMLIMSEDRALAMGYKPKAYLRDFIYVSQDPKDQLLLGPTYATPKVLEKAGLTMNDIDAFEFHEAFSGQILANFKAMDSDWFAQNYMGRKTKVGAPPLEKFNIWGGSLSLGHPFGATGCRLVMAAANRLRKDGGQYALVAACAAGGQGHAMIVEAYPK
modifications: phosphorylated at S198
B5: 1-phosphatidylinositol 4,5-bisphosphate phosphodiesterase gamma-1: PKGIα substrate, phospho site S1233 (protein, UniProt P10686 2-1290, looked up)
1-phosphatidylinositol …: AGVGTPCANGCGPSAPSEAEVLHLCRSLEVGTVMTLFYSKKSQRPERKTFQVKLETRQITWSRGADKIEGSIDIREIKEIRPGKTSRDFDRYQEDPAFRPDQSHCFVILYGMEFRLKTLSLQATSEDEVNMWIKGLTWLMEDTLQAATPLQIERWLRKQFYSVDRNREDRISAKDLKNMLSQVNYRVPNMRFLRERLTDFEQRSGDITYGQFAQLYRSLMYSAQKTMDLPFLETNTLRTGERPELCQVSLSEFQQFLLEYQGELWAVDRLQVQEFMLSFLRDPLREIEEPYFFLDELVTFLFSKENSVWNSQLDAVCPETMNNPLSHYWISSSHNTYLTGDQFSSESSLEAYARCLRMGCRCIELDCWDGPDGMPVIYHGHTLTTKIKFSDVLHTIKEHAFVASEYPVILSIEDHCSIAQQRNMAQHFRKVLGDTLLTKPVDIAADGLPSPNQLKRKILIKHKKLAEGSAYEEVPTSVMYSENDISNSIKNGILYLEDPVNHEWYPHYFVLTSSKIYYSEETSSDQGNEDEEEPKEASGSTELHSSEKWFHGKLGAGRDGRHIAERLLTEYCIETGAPDGSFLVRESETFVGDYTLSFWRNGKVQHCRIHSRQDAGTPKFFLTDNLVFDSLYDLITHYQQVPLRCNEFEMRLSEPVPQTNAHESKEWYHASLTRAQAEHMLMRVPRDGAFLVRKRNEPNSYAISFRAEGKIKHCRVQQEGQTVMLGNSEFDSLVDLISYYEKHPLYRKMKLRYPINEEALEKIGTAEPDYGALYEGRNPGFYVEANPMPTFKCAVKALFDYKAQREDELTFTKSAIIQNVEKQDGGWWRGDYGGKKQLWFPSNYVEEMINPAILEPEREHLDENSPLGDLLRGVLDVPACQIAIRPEGKNNRLFVFSISMPSVAQWSLDVAADSQEELQDWVKKIREVAQTADARLTEGKMMERRKKIALELSELVVYCRPVPFDEEKIGTERACYRDMSSFPETKAEKYVNKAKGKKFLQYNRLQLSRIYPKGQRLDSSNYDPLPMWICGSQLVALNFQTPDKPMQMNQALFMAGGHCGYVLQPSTMRDEAFDPFDKSSLRGLEPCVICIEVLGARHLPKNGRGIVCPFVEIEVAGAEYDSTKQKTEFVVDNGLNPVWPAKPFHFQISNPEFAFLRFVVYEEDMFSDQNFLAQATFPVKGLKTGYRAVPLKNNYSEDLELASLLIKIDIFPAKENGDLSPFSGTSLRERASDASSQLFHVRAREGSFEARYQQPFEDFRISQEHLADHFDSRERRAPRRTRVNGDNRL
modifications: phosphorylated at S1233

test system: PKGIα (analogue-sensitive M438G), disulfide-activated; assay: Chemical genetic phosphoproteomic screen, disulfide-activated PKGIα M438G versus unactivated control; assay type: biochemical, human PKGIα; substrates in rat heart homogenate; conditions: disulfide-activated PKGIα M438G vs basal; 1 h, 30 °C, pH 7.5, rat heart homogenate; label-free LC–MS/MS; n=4; * P<0.05 Dunnett: only phospholamban S16
From the text: (§1) We employed a chemical genetic method[18] to identify direct substrates of cGMP-activated PKGIα and disulfide bond-activated PKGIα in heart tissue. This method involves mutation of the ATP binding-site of the kinase of interest so that it can accept a ‘bulky' N6-alkylated ATP analogue for example, N6^−phenylethyl ATP. An oxygen atom on the γ phosphate is also replaced with a sulfur atom—giving an N6-alkylated ATPγS analogue—so that the mutant kinase catalyses the transfer of a thiophosphate group (–PO3S^3−) to its substrates instead of a phosphate. The thiophosphate group is nucleophilic, providing a basis for substrates of the analogue-sensitive kinase to be purified by a ‘covalent capture' protocol. LC–MS/MS allows identification of the substrate and localization of the phosphorylation site. Thiophosphorylated proteins can also be detected with a thiophosphate ester-specific antibody. Analogue-sensitive mutants of PKGIα and PKGIα C42S (which cannot form the activating intermolecular disulfide bond) were generated by mutating Met438 in the ATP-binding domain to Gly. This mutation was chosen based on a previous study where an analogue-sensitive mutant of the catalytic subunit of PKA—which shares sequence homology with PKGIα—was engineered. Detailed protocols are given below.
(§2) A pCDNA3 expression vector encoding human FLAG-tagged PKGIα (ref. [41]) underwent site-directed mutagenesis to generate constructs for untagged WT, C42S, M438G and C42S/M438G PKGIα. Mutations were introduced using the QuikChange II Site-Directed Mutagenesis Kit (Agilent) according to the manufacturer's instructions. Expression and purification of the PKGIα mutants was performed according to a published method[42] as follows: suspension FreeStyle 293-F cells (ThermoFisher Scientific) were transfected with the appropriate PKGIα construct using the stable cationic polymer polyethyleneimine (PEI) as a transfection reagent. After ∼72 h cells were harvested by centrifugation (400g; room temperature; 15 min), re-suspended in ice cold lysis buffer (25 mM sodium phosphate buffer pH 6.8; 10 mM ethylenediaminetetraacetic acid (EDTA); 100 mM NaCl; 10 mM benzamidine hydrochloride; and 10 mM dithiothreitol (DTT)) and frozen in liquid N2. Cells were lysed by three freeze (liquid N2)-thaw (37 °C) cycles and the lysate was clarified by centrifugation at 140,000g and 4 °C for 30 min. The soluble protein fraction was loaded onto a pre-equilibrated 8-(2-aminoethylamino)adenosine-3′, 5′-cyclic monophosphate column (8-AEA-cAMP agarose; BioLog, Germany) followed by washing with 20 column volumes of lysis buffer. The column was further washed with lysis buffer +3 M NaCl (5 column volumes) and PKGIα was then eluted with lysis buffer +150 mM NaCl and 500 μM cAMP. Removal of cAMP and buffer exchange was achieved by extensive dialysis against 25 mM sodium phosphate buffer pH 6.8, 2 mM EDTA and 100 mM NaCl. For ITC analysis, WT PKGIα was incubated with 10 mM lipoic acid for 2 h on ice to obtain ∼100% disulfide dimer (confirmed by SDS-PAGE). Oxidized WT or C42S PKGIα was further purified by size exclusion chromatography using a HiLoad 16/600 Superdex 200 pg column (GE Healthcare) with 50 mM sodium phosphate buffer pH 7.4 and 100 mM NaCl. Proteins were concentrated using Amicon Ultra centrifugal filter devices (Merck Millipore). DTT was absent in storage buffers so that the activating disulfide bond would not be reduced and so that the PKGIα M438G mutant would be oxidized to disulfide dimer in the presence of air (confirmed by SDS-PAGE). Protein concentration was determined by Pierce BCA assay (ThermoFisher) and enzyme activity was confirmed using the Omnia kinase assay kit (ThermoFisher).
(§3) Male Wistar rats (9–10 weeks; body weight 300–330 g) were euthanized by intraperitoneal injection of sodium pentobarbitone (200 mg kg^−1) with heparin (500 USP units). […]

Molecule | Log2 fold change in phosphorylation, Disulfide versus control
B1 | 1.13
B2 | 1.30
B3 | 1.91
B4 | 0.04
B5 | 1.82

same assay, conditions: phospho site S302 (second site of this protein); n=4; not significant

Molecule | Log2 fold change in phosphorylation, Disulfide versus control
B2 | 1.32

test system: PKGIα (analogue-sensitive C42S/M438G), cGMP-activated; assay: Chemical genetic phosphoproteomic screen, cGMP-activated PKGIα C42S/M438G versus unactivated control; assay type: biochemical, human PKGIα; substrates in rat heart homogenate; conditions: PKGIα C42S/M438G + 100 μM cGMP vs basal; 1 h, 30 °C, pH 7.5, rat heart homogenate; label-free LC–MS/MS; n=4; * P<0.05 Dunnett: all values except phospholamban S16
From the text: as §1, §2, §3

Molecule | Log2 fold change in phosphorylation, cGMP versus control
B1 | 3.16*
B2 | 3.05*
B3 | 3.42*
B4 | 3.44*
B5 | 4.50*

same assay, conditions: phospho site S302 (second site of this protein); n=4; * P<0.05

Molecule | Log2 fold change in phosphorylation, cGMP versus control
B2 | 3.16*
